Data published in PMC10783520, “Mutual promotion of co-condensation of KRAS G-quadruplex and a well-folded protein HMGB1”.

Legend:
Settings in all cases: protein: recombinant; intramolecular parallel G4, K+
[1] = biological target: T1, HMGB1 A box (termed HMGB1) (UniProt P09429 9-78); assay: ITC; K+; K+-containing buffer; 20 or 200 mM K+ in Fig S9 titrations (10 uM HMGB1); full buffer, pH and temperature of binding assays not in material (phase-separation assays: 10 mM HEPES pH 7.4, 20 mM K+, 10% PEG8K)
T1 sequence: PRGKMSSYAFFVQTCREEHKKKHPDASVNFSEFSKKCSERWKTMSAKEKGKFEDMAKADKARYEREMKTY

[2] = biological target: T1, HMGB1 A box (termed HMGB1); assay: fluorescence titration; 200 mM K+; K+-containing buffer; 20 or 200 mM K+ in Fig S9 titrations (10 uM HMGB1); full buffer, pH and temperature of binding assays not in material (phase-separation assays: 10 mM HEPES pH 7.4, 20 mM K+, 10% PEG8K)
[3] = biological target: T1, HMGB1 A box (termed HMGB1); assay: fluorescence titration; 20 mM K+; K+-containing buffer; 20 or 200 mM K+ in Fig S9 titrations (10 uM HMGB1); full buffer, pH and temperature of binding assays not in material (phase-separation assays: 10 mM HEPES pH 7.4, 20 mM K+, 10% PEG8K)
[4] = biological target: T1, HMGB1 A box (termed HMGB1); assay: fluorescence titration (intrinsic HMGB1 fluorescence, 335 nm); K+; K+-containing buffer; 20 or 200 mM K+ in Fig S9 titrations (10 uM HMGB1); full buffer, pH and temperature of binding assays not in material (phase-separation assays: 10 mM HEPES pH 7.4, 20 mM K+, 10% PEG8K)

With AGGGCGGTGTGGGAAGAGGGAA (structured_DNA) [22R (GQKRAS)] as the binder, how does the Kd [1] read?
The Kd was 7.04 µM.

And the Kd [2]?
Its Kd is 4.24 µM.

And the Kd [3]?
The Kd was 3.24 µM.

What about the Kd [4] of the same binder?
The Kd was 4.08 µM.
